Numbering of substitutions follows the chain as printed. Names and notes keep the numbering of the source.
T1: Human CD3eg linker (human)
T1 construct: Single-chain construct; also called recombinant human CD3
T1 chain: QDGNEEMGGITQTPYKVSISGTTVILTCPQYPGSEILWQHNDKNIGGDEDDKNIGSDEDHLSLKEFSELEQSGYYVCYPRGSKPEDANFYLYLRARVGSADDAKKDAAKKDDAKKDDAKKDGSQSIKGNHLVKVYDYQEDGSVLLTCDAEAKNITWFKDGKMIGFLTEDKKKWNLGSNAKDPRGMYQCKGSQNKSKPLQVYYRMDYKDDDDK

B1: H183/L072 VL M27eR (antibody, name in Kabat numbering, V domains shown)
VH: QVQLVESGGGLVQPGRSLRLSCAASGFTFSNAWMHWVRQAPGKGLEWVAQIKDKGNAYAAYYAPSVKGRFTISRDDSKNSIYLQMNSLKTEDTAVYYCHYVHYASASTVLPAFGVDAWGQGTTVTVSS
VL: DIVMTQSPLSLPVTPGEPASISCQASQELVHRNRNTYLHWYQQKPGQAPRLLIYKVSNRFPGVPDRFSGSGSGTDFTLKISRVEAEDVGVYYCAQGTSVPFTFGQGTKLEIK
B2: H183/L072 VL N28K (antibody, name in Kabat numbering, V domains shown)
VH: B1 VH
VL: B1 VL with R32M, N33K
B3: H183/L072 VL M27eV (antibody, name in Kabat numbering, V domains shown)
VH: B1 VH
VL: B1 VL with R32V
B4: H183/L072 VL N30K (antibody, name in Kabat numbering, V domains shown)
VH: B1 VH
VL: B1 VL with R32M, N35K
B5: H183/L072 VL N28H (antibody, name in Kabat numbering, V domains shown)
VH: B1 VH
VL: B1 VL with R32M, N33H
B6: H183/L072 VL N30L (antibody, name in Kabat numbering, V domains shown)
VH: B1 VH
VL: B1 VL with R32M, N35L
B7: H183/L072 VL N53K (antibody, name in Kabat numbering, V domains shown)
VH: B1 VH
VL: B1 VL with R32M, N58K
B8: H183/L072 VL N28E (antibody, name in Kabat numbering, V domains shown)
VH: B1 VH
VL: B1 VL with R32M, N33E
B9: H183/L072 VL N53M (antibody, name in Kabat numbering, V domains shown)
VH: B1 VH
VL: B1 VL with R32M, N58M
B10: H183/L072 VL N28S (antibody, name in Kabat numbering, V domains shown)
VH: B1 VH
VL: B1 VL with R32M, N33S
B11: H183/L072 VL N28Q (antibody, name in Kabat numbering, V domains shown)
VH: B1 VH
VL: B1 VL with R32M, N33Q
B12: H183/L072 VL N53L (antibody, name in Kabat numbering, V domains shown)
VH: B1 VH
VL: B1 VL with R32M, N58L
B13: H183/L072 VL M27eY (antibody, name in Kabat numbering, V domains shown)
VH: B1 VH
VL: B1 VL with R32Y
B14: H183/L072 VL N30G (antibody, name in Kabat numbering, V domains shown)
VH: B1 VH
VL: B1 VL with R32M, N35G
B15: H183/L072 VL N30S (antibody, name in Kabat numbering, V domains shown)
VH: B1 VH
VL: B1 VL with R32M, N35S
B16: H183/L072 VL M27eT (antibody, name in Kabat numbering, V domains shown)
VH: B1 VH
VL: B1 VL with R32T
B17: H183/L072 VL N53D (antibody, name in Kabat numbering, V domains shown)
VH: B1 VH
VL: B1 VL with R32M, N58D
B18: H183/L072 VL N30Q (antibody, name in Kabat numbering, V domains shown)
VH: B1 VH
VL: B1 VL with R32M, N35Q
B19: H183/L072 VL N30I (antibody, name in Kabat numbering, V domains shown)
VH: B1 VH
VL: B1 VL with R32M, N35I
B20: H183/L072 VL M27eS (antibody, name in Kabat numbering, V domains shown)
VH: B1 VH
VL: B1 VL with R32S
B21: H183/L072 VL N53E (antibody, name in Kabat numbering, V domains shown)
VH: B1 VH
VL: B1 VL with R32M, N58E
B22: H183/L072 VL N28A (antibody, name in Kabat numbering, V domains shown)
VH: B1 VH
VL: B1 VL with R32M, N33A
B23: H183/L072 VL N30V (antibody, name in Kabat numbering, V domains shown)
VH: B1 VH
VL: B1 VL with R32M, N35V
B24: H183/L072 VL N53G (antibody, name in Kabat numbering, V domains shown)
VH: B1 VH
VL: B1 VL with R32M, N58G
B25: H183/L072 VL N30F (antibody, name in Kabat numbering, V domains shown)
VH: B1 VH
VL: B1 VL with R32M, N35F
B26: H183/L072 VL N30T (antibody, name in Kabat numbering, V domains shown)
VH: B1 VH
VL: B1 VL with R32M, N35T
B27: H183/L072 VL N30D (antibody, name in Kabat numbering, V domains shown)
VH: B1 VH
VL: B1 VL with R32M, N35D
B28: H183/L072 VL N53R (antibody, name in Kabat numbering, V domains shown)
VH: B1 VH
VL: B1 VL with R32M, N58R
B29: H183/L072 VL N53A (antibody, name in Kabat numbering, V domains shown)
VH: B1 VH
VL: B1 VL with R32M, N58A
B30: H183/L072 VL N30W (antibody, name in Kabat numbering, V domains shown)
VH: B1 VH
VL: B1 VL with R32M, N35W
B31: H183/L072 VL N30E (antibody, name in Kabat numbering, V domains shown)
VH: B1 VH
VL: B1 VL with R32M, N35E
B32: H183/L072 VL N53F (antibody, name in Kabat numbering, V domains shown)
VH: B1 VH
VL: B1 VL with R32M, N58F
B33: H183/L072 VL N28G (antibody, name in Kabat numbering, V domains shown)
VH: B1 VH
VL: B1 VL with R32M, N33G
B34: H183/L072 VL N30A (antibody, name in Kabat numbering, V domains shown)
VH: B1 VH
VL: B1 VL with R32M, N35A
B35: H183/L072 VL N30R (antibody, name in Kabat numbering, V domains shown)
VH: B1 VH
VL: B1 VL with R32M, N35R
B36: H183/L072 VL N53S (antibody, name in Kabat numbering, V domains shown)
VH: B1 VH
VL: B1 VL with R32M, N58S
B37: H183/L072 VL N30Y (antibody, name in Kabat numbering, V domains shown)
VH: B1 VH
VL: B1 VL with R32M, N35Y
B38: H183/L072 VL N28D (antibody, name in Kabat numbering, V domains shown)
VH: B1 VH
VL: B1 VL with R32M, N33D
B39: H183/L072 VL N53P (antibody, name in Kabat numbering, V domains shown)
VH: B1 VH
VL: B1 VL with R32M, N58P
B40: H183/L072 VL N53Q (antibody, name in Kabat numbering, V domains shown)
VH: B1 VH
VL: B1 VL with R32M, N58Q
B41: H183/L072 VL N28T (antibody, name in Kabat numbering, V domains shown)
VH: B1 VH
VL: B1 VL with R32M, N33T
B42: H183/L072 VL N30H (antibody, name in Kabat numbering, V domains shown)
VH: B1 VH
VL: B1 VL with R32M, N35H
B43: H183/L072 VL M27eW (antibody, name in Kabat numbering, V domains shown)
VH: B1 VH
VL: B1 VL with R32W
B44: H183/L072 VL N53H (antibody, name in Kabat numbering, V domains shown)
VH: B1 VH
VL: B1 VL with R32M, N58H
B45: H183/L072 VL N30M (antibody, name in Kabat numbering, V domains shown)
VH: B1 VH
VL: B1 VL with R32M, N35M

Target: T1, Human CD3eg linker
Assay: SPR; fold vs parent H183/L072

Row | Binder | fold change of affinity
1 | B1 | 1.4 fold
2 | B2 | 0 fold
3 | B3 | 0.8 fold
4 | B4 | 1.3 fold
5 | B5 | 0 fold
6 | B6 | 0.5 fold
7 | B7 | 1.4 fold
8 | B8 | 0 fold
9 | B9 | 0.9 fold
10 | B10 | 0 fold
11 | B11 | 0 fold
12 | B12 | 0.6 fold
13 | B13 | 0.9 fold
14 | B14 | 0 fold
15 | B15 | 0 fold
16 | B16 | 1.2 fold
17 | B17 | 0.2 fold
18 | B18 | 1.2 fold
19 | B19 | 0.5 fold
20 | B20 | 1.2 fold
21 | B21 | 0.5 fold
22 | B22 | 0 fold
23 | B23 | 0.5 fold

Row | Binder | fold change of affinity
24 | B24 | 0.6 fold
25 | B25 | 0.9 fold
26 | B26 | 0.1 fold
27 | B27 | 0.1 fold
28 | B28 | 1.8 fold
29 | B29 | 0.6 fold
30 | B30 | 0.9 fold
31 | B31 | 0.3 fold
32 | B32 | 0.7 fold
33 | B33 | 0 fold
34 | B34 | 0.3 fold
35 | B35 | 1.5 fold
36 | B36 | 0.9 fold
37 | B37 | 0.8 fold
38 | B38 | 0 fold
39 | B39 | 0.6 fold
40 | B40 | 0.8 fold
41 | B41 | 0 fold
42 | B42 | 0.8 fold
43 | B43 | 1 fold
44 | B44 | 1.2 fold
45 | B45 | 1.6 fold
